Values of other authors as cited in publication PMC11168107.
Like-named read-outs stand apart in the source and are kept apart here.

Columns and labels:
Bin1 SH3 (Homo sapiens) [1] = biological target: Bin1 SH3 (Homo sapiens) (UniProt O00499)
Bin1 SH3 (Homo sapiens) [2] = biological target: Bin1 SH3 (Homo sapiens) (UniProt O00499); remark: listed apart in the source

Sequence of UniProt O00499 (O00499 517-593): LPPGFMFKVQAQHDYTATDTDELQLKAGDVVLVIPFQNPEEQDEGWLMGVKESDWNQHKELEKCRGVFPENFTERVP

| Substance | Kd (Bin1 SH3 (Homo sapiens) [1]) [µM] | Kd (Bin1 SH3 (Homo sapiens) [2]) [µM] |
| --- | --- | --- |
| MYC 1-88 (from UniProt P01106) | 33 | – |
| MYC 55-68 (from UniProt P01106) | – | 4.2 |
